Eleven variants from paper PMC11673000 (2024) can be followed below.

B1: FAT10 wild type (His-3xFLAG-FAT10) [not stated] / NEDD8 ultimate buster-1 long (NUB1L) [not stated] (parent complex)
chain 1: MAPNASCLCVHVRSEEWDLMTFDANPYDSVKKIKEHVRSKTKVPVQDQVLLLGSKILKPRRSLSSYGIDKEKTIHLTLKVVKPSDEELPLFLVESGDEAKRHLLQVRRSSSVAQVKAMIETKTGIIPETQIVTCNGKRLEDGKMMADYGIRKGNLLFLACYCIGG
chain 2: MAQKKYLQAKLTQFLREDRIQLWKPPYTDENKKVGLALKDLAKQYSDRLECCENEVEKVIEEIRCKAIERGTGNDNYRTTGIATIEVFLPPRLKKDRKNLLETRLHITGRELRSKIAETFGLQENYIKIVINKKQLQLGKTLEEQGVAHNVKAMVLELKQSEEDARKNFQLEEEEQNEAKLKEKQIQRTKRGLEILAKRAAETVVDPEMTPYLDIANQTGRSIRIPPSERKALMLAMGYHEKGRAFLKRKEYGIALPCLLDADKYFCECCRELLDTVDNYAVLQLDIVWCYFRLEQLECLDDAEKKLNLAQKCFKNCYGENHQRLVHIKGNCGKEKVLFLRLYLLQGIRNYHSGNDVEAYEYLNKARQLFKELYIDPSKVDNLLQLGFTAQEARLGLRACDGNVDHAATHITNRREELAQIRKEEKEKKRRRLENIRFLKGMGYSTHAAQQVLHAASGNLDEALKILLSNPQMWWLNDSNPETDNRQESPSQENIDRLVYMGFDALVAEAALRVFRGNVQLAAQTLAHNGGSLPPELPLSPEDSLSPPATSPSDSAGTSSASTDEDMETEAVNEILEDIPEHEEDYLDSTLEDEEIIIAEYLSYVENRKSATKKN

The variants in the first assay derive from B1. In words: HA-immunoprecipitation, SDS-PAGE and immunoblot (ECL quantification); HEK293T cells transiently co-transfected with HA-NUB1L and FLAG-FAT10; three independent experiments; parent: 4; read off a plot. Background: In western blotting, separated proteins are transferred to a membrane and probed.
In the case of chain 1 MAPNASCLCVHVRSEEWDLMTFDANPYDSVKKIKEHVRSKTKVPVQDQVLLLGSKILKPRRSLSSYGIDKEKTIHLTLKVVKPSDEELPLFLVESGDEAKRHLLQVRRDSSVAQVKAMIETKTGIIPETQIVTCNGKRLEDGKMMADYGIRKGNLLFLACYCIGG [chain 1 S109D], the response is ~3 IP [FAT10] / Load [FAT10], FAT10 D = 1.
Still for that read-out and setting: to chain 1 MAPNASCLCVHVRSEEWDLMTFDANPYDSVKKIKEHVRSKTKVPVQDQVLLLGSKILKPRRDLSSYGIDKEKTIHLTLKVVKPSDEELPLFLVESGDEAKRHLLQVRRSSSVAQVKAMIETKTGIIPETQIVTCNGKRLEDGKMMADYGIRKGNLLFLACYCIGG [chain 1 S62D] belongs ~3.4 IP [FAT10] / Load [FAT10], FAT10 D = 1; to chain 1 MAPNASCLCVHVRSEEWDLMTFDANPYDSVKKIKEHVRSKTKVPVQDQVLLLGSKILKPRRSLDSYGIDKEKTIHLTLKVVKPSDEELPLFLVESGDEAKRHLLQVRRSSSVAQVKAMIETKTGIIPETQIVTCNGKRLEDGKMMADYGIRKGNLLFLACYCIGG [chain 1 S64D], ~2.6 IP [FAT10] / Load [FAT10], FAT10 D = 1.
Regarding chain 1 MAPNASCLCVHVRSEEWDLMTFDANPYDSVKKIKEHVRSKTKVPVQDQVLLLGSKILKPRRSLSSYGIDKEKTIHLTLKVVKPSDEELPLFLVEDGDEAKRHLLQVRRSSSVAQVKAMIETKTGIIPETQIVTCNGKRLEDGKMMADYGIRKGNLLFLACYCIGG [chain 1 S95D], the response is ~2.6 IP [FAT10] / Load [FAT10], FAT10 D = 1.
With chain 1 MAPNASCLCVHVRSEEWDLMTFDANPYDSVKKIKEHVRSKTKVPVQDQVLLLGSKILKPRRSLSSYGIDKEKTIHLELKVVKPSDEELPLFLVESGDEAKRHLLQVRRSSSVAQVKAMIETKTGIIPETQIVTCNGKRLEDGKMMADYGIRKGNLLFLACYCIGG [chain 1 T77E], the response was ~0.95 IP [FAT10] / Load [FAT10], FAT10 D = 1.

The variants in the next assay derive from B1. The assay can be described thus: HA-immunoprecipitation, SDS-PAGE and immunoblot (ECL quantification); HEK293T cells transiently co-transfected with HA-NUB1L and FLAG-FAT10; three independent experiments; parent: 4.3; read off a plot.
Take chain 1 MAPNASCLCVHVRSEEWDLMTFDANPYDSVKKIKEHVRSKTKVPVQDQVLLLGSKILKPRRDLDSYGIDKEKTIHLTLKVVKPSDEELPLFLVEDGDEAKRHLLQVRRDSSVAQVKAMIETKTGIIPETQIVTCNGKRLEDGKMMADYGIRKGNLLFLACYCIGG [chain 1 S62D, chain 1 S64D, chain 1 S95D, chain 1 S109D]: the response was ~7.7 IP [FAT10] / Load [FAT10], FAT10 D = 1.
Consider chain 1 MAPNASCLCVHVRSEEWDLMTFDANPYDSVKKIKEHVRSKTKVPVQDQVLLLGSKILKPRRDLDSYGIDKEKTIHLTLKVVKPSDEELPLFLVESGDEAKRHLLQVRRSSSVAQVKAMIETKTGIIPETQIVTCNGKRLEDGKMMADYGIRKGNLLFLACYCIGG [chain 1 S62D, chain 1 S64D], for which the response is ~4.7 IP [FAT10] / Load [FAT10], FAT10 D = 1.
As for chain 1 MAPNASCLCVHVRSEEWDLMTFDANPYDSVKKIKEHVRSKTKVPVQDQVLLLGSKILKPRRSLDSYGIDKEKTIHLELKVVKPSDEELPLFLVESGDEAKRHLLQVRRSSSVAQVKAMIETKTGIIPETQIVTCNGKRLEDGKMMADYGIRKGNLLFLACYCIGG [chain 1 S64D, chain 1 T77E], the response is ~2.5 IP [FAT10] / Load [FAT10], FAT10 D = 1.
For the variant chain 1 MAPNASCLCVHVRSEEWDLMTFDANPYDSVKKIKEHVRSKTKVPVQDQVLLLGSKILKPRRDLDSYGIDKEKTIHLELKVVKPSDEELPLFLVESGDEAKRHLLQVRRSSSVAQVKAMIETKTGIIPETQIVTCNGKRLEDGKMMADYGIRKGNLLFLACYCIGG [chain 1 S62D, chain 1 S64D, chain 1 T77E], the response is ~1.9 IP [FAT10] / Load [FAT10], FAT10 D = 1.
Same read-out and setting: with chain 1 MAPNASCLCVHVRSEEWDLMTFDANPYDSVKKIKEHVRSKTKVPVQDQVLLLGSKILKPRRDLSSYGIDKEKTIHLELKVVKPSDEELPLFLVESGDEAKRHLLQVRRSSSVAQVKAMIETKTGIIPETQIVTCNGKRLEDGKMMADYGIRKGNLLFLACYCIGG [chain 1 S62D, chain 1 T77E] the figure was ~2.8 IP [FAT10] / Load [FAT10], FAT10 D = 1; with chain 1 MAPNASCLCVHVRSEEWDLMTFDANPYDSVKKIKEHVRSKTKVPVQDQVLLLGSKILKPRRSLSSYGIDKEKTIHLELKVVKPSDEELPLFLVESGDEAKRHLLQVRRSSSVAQVKAMIETKTGIIPETQIVTCNGKRLEDGKMMADYGIRKGNLLFLACYCIGG [chain 1 T77E], ~1.8 IP [FAT10] / Load [FAT10], FAT10 D = 1.

A further assay covers variants of B1. In words: HA-immunoprecipitation, SDS-PAGE and immunoblot (ECL quantification); HEK293T cells transiently co-transfected with HA-NUB1L and FLAG-FAT10; three independent experiments; parent: 4.
Turning to chain 1 MAPNASCLCVHVRSEEWDLMTFDANPYDSVKKIKEHVRSKTKVPVQDQVLLLGSKILKPRRDLDSYGIDKEKTIHLELKVVKPSDEELPLFLVEDGDEAKRHLLQVRRDSSVAQVKAMIETKTGIIPETQIVTCNGKRLEDGKMMADYGIRKGNLLFLACYCIGG [chain 1 S62D, chain 1 S64D, chain 1 T77E, chain 1 S95D, chain 1 S109D], the response is 1 IP [FAT10] / Load [FAT10], FAT10 D = 1.

The variants in the next assay derive from B1. The assay can be described thus: HA-immunoprecipitation, SDS-PAGE and immunoblot (ECL quantification); HEK293T cells transiently co-transfected with HA-NUB1L and FLAG-FAT10; three independent experiments; parent: 4.3.
In the case of chain 1 MAPNASCLCVHVRSEEWDLMTFDANPYDSVKKIKEHVRSKTKVPVQDQVLLLGSKILKPRRDLDSYGIDKEKTIHLELKVVKPSDEELPLFLVEDGDEAKRHLLQVRRDSSVAQVKAMIETKTGIIPETQIVTCNGKRLEDGKMMADYGIRKGNLLFLACYCIGG [chain 1 S62D, chain 1 S64D, chain 1 T77E, chain 1 S95D, chain 1 S109D], the response was 1 IP [FAT10] / Load [FAT10], FAT10 D = 1.
